Data from US20130209464A1.

Target: HIV-1 MN strain envelope (Env) on Env-pseudotyped virus (HIV-1 MN strain) (UniProt P05877)
Assay: cell-based or functional assay

HIV-1 MN strain envelope (Env) on Env-pseudotyped virus (HIV-1 MN strain), sequence (P05877 32-856 limits assumed): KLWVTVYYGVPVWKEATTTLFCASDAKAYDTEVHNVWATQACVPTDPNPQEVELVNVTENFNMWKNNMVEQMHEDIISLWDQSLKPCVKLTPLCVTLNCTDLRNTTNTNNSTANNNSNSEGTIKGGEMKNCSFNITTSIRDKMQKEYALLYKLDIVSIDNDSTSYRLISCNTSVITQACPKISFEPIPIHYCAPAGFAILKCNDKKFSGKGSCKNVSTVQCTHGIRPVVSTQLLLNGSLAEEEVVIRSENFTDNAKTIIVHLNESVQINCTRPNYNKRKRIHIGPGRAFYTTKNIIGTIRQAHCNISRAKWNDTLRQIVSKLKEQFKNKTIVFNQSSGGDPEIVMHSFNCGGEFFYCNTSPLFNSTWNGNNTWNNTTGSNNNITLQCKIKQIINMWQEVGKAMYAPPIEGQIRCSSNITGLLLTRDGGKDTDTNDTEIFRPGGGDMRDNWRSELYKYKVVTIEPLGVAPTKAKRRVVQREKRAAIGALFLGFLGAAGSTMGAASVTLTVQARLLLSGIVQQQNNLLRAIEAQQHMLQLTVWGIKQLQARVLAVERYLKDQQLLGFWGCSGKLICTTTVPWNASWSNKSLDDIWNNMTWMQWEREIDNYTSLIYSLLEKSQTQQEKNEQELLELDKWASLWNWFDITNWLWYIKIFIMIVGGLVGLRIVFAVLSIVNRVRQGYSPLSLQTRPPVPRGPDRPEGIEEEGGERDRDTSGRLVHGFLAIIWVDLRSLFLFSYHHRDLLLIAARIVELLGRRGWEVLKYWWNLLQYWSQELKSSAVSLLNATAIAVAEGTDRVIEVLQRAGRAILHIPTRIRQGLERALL

Substance: native actinohivin (AH) polypeptide (from UniProt Q9KWN0 47-160)
- 50% inhibitory concentration (IC50), neutralization of Env-pseudotyped virus, TZM-bl luciferase reporter assay: 0.5 µg/mL
